Earlier results in paper PMC7261628.

Target: Cathepsin B propeptide (prosegment) (UniProt P07858)
Test: Enzyme inhibition kinetics

Row | Ki (pH 4.0) | Ki (pH 6.0) | Substance
1 | 2 nM |  | Cathepsin B His110Ala mutant H110A
2 | 82 nM | 3.7 nM | Cathepsin B, mature enzyme (wild type)
